Biological target: T1, 人CD40 (BJAB细胞) (human, UniProt P25942 21-277)
T1 construct: whole, on cells; On the surface of BJAB cells in FACS and in the functional assays; also called 细胞膜表面的CD40; 人CD40分子
Assay: Western blot, hybridoma supernatant as primary antibody, HRP anti-mouse IgG secondary

T1 sequence (P25942 21-277): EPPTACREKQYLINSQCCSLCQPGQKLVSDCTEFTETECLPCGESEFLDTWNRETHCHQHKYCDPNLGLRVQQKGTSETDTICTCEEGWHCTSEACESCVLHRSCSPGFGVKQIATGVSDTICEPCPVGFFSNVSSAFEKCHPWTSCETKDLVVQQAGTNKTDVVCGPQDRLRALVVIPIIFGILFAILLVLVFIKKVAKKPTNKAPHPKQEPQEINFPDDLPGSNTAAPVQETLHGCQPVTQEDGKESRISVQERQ

binding result: binds
B1: CD40单克隆抗体 No.3 (antibody, V domains shown)
VH: EVQLQQSGPELVKPGASVKIVCKASGYTFTDYNMDWVKQSHGKSLEWIGDINPKNGGIIYNQKFKGKATLTVDKSSSTAYMELRSLTSEDTAVYYCVRRFAYWGQGTTVTVSS
VL: DIELTQSPTTMAASPGEKITITCSASSSISSNYLHWYQQKPGFSPKLLIYRTSNLAYGVPARFSGSGSGTSYSLTIGTMEAEDVATYYCQQGSSIPYTFGGGTKLEIKR
notes: Mouse hybridoma antibody, tested as culture supernatant
